No end group written: not given here.

Experiment [1] has as its target T1, REV-ERBα ligand-binding domain (residues 274–614 with an internal deletion of residues 324–422) (human, UniProt P20393 274-614, internal deletion of residues 324–422).
T1 sequence: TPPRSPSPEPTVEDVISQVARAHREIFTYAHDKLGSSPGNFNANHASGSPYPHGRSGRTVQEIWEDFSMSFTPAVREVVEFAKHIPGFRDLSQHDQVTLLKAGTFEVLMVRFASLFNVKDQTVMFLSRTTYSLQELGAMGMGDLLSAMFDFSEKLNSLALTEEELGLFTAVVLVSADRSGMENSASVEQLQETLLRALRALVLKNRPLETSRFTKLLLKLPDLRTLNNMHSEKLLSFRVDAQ
Description: FP; heme-bound, control.

The target in experiment [2] is T2, REV-ERBβ ligand-binding domain (human, UniProt Q14995 212-579).
T2 chain: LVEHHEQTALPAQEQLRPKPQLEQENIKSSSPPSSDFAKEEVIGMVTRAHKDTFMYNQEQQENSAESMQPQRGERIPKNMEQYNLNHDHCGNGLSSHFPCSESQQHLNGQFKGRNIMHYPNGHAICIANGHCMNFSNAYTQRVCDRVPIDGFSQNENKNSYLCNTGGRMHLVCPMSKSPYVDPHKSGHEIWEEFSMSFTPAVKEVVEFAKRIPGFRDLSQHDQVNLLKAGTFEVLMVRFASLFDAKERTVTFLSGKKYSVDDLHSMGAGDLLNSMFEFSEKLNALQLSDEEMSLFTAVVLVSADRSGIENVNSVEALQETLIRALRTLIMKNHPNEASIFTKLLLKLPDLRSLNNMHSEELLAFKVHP
Nature of the experiment: FP; heme-bound, control.

Experiment [3] concerns the target T1, REV-ERBα ligand-binding domain …. Nature of the experiment: FP; no heme, + SNAP (NO donor).
Experiment [4] deals with T2, REV-ERBβ ligand-binding domain. Description: FP; no heme, + SNAP (NO donor).
Experiment [5] deals with T3, REV-ERBα ligand-binding domain (residues 274–614 with an internal deletion of residues 324–422) (human, UniProt P20393 274-614, internal deletion of residues 324–422).
T3 construct: REV-ERBα, human, GenBank CAB53540, residues 274–614 with an internal deletion of residues 324–422; heme is a non-covalent ligand; Modified pET28a vector; also called REV-ERBα LBD; source: E. coli BL21-Gold(DE3) pLysS, with or without hemin in the medium, purified (Ni-NTA)
T3 sequence (looked up): T1 sequence
Nature of the experiment: fluorescence polarisation; 110 nM N-terminally fluorescein-labelled NCOR peptide with a dilution series of LBD; 100 mM Tris pH 8.2, 150 mM NaCl; apo or heme-bound LBD, with or without the NO donor SNAP (1,200 μM); 384-well plates. Conditions: both partners purified. In general terms: Polarisation of emitted light reports the rotation of a fluorescent probe.

For experiment [6], the target named is T1, REV-ERBα ligand-binding domain …. Nature of the experiment: FP; heme-bound, + SNAP (NO donor).
Experiment [7] has as its target T2, REV-ERBβ ligand-binding domain. Nature of the experiment: FP; heme-bound, + SNAP (NO donor).
For experiment [8], the target named is T1, REV-ERBα ligand-binding domain …. Nature of the experiment: FP; no heme, control.
In experiment [9] the target is T2, REV-ERBβ ligand-binding domain. Description: FP; no heme, control.

B1: NCOR interaction domain I (IDI) peptide (peptide)
peptide: fluorescein-DPASNLGLEDIIRKALMGSF
notes: also called NCOR peptide; Nuclear Receptor Co-repressor peptide
The Kd is the equilibrium constant for the complex coming apart. As to B1, the Kd in [1] was 51.1 µM; in experiment [2] it was 193 µM; in experiment [3], 3.7 µM; in [4] it was 20.4 µM; in experiment [6], 2.9 µM; in experiment [7] it was 99.7 µM. Besides, the dissociation constant (Kd) turned out to be 4.1 µM in experiment [8] and 16.8 µM in experiment [9]. For the same molecule, in [5], the binding result is “binds”.

Values taken from PMC2652392, “The Structural Basis of Gas-Responsive Transcription by the Human Nuclear Hormone Receptor REV-ERBβ” (PLoS Biology, 2009).
